These are literature values, as cited in publication PMC9028781.

Data set [1] addresses YopB (nanodisc-embedded) (Yersinia pestis) (UniProt Q06114).
Data set [2] deals with Substance P (Homo sapiens) (UniProt P20366).
Sequence of Substance P (Homo sapiens) (P20366 whole entry, looked up): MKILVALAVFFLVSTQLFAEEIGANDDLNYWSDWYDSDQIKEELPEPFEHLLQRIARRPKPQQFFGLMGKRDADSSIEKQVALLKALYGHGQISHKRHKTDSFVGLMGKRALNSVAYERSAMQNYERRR

Sequence of YopB (nanodisc-embedded) (Yersinia pestis) (Q06114 whole entry): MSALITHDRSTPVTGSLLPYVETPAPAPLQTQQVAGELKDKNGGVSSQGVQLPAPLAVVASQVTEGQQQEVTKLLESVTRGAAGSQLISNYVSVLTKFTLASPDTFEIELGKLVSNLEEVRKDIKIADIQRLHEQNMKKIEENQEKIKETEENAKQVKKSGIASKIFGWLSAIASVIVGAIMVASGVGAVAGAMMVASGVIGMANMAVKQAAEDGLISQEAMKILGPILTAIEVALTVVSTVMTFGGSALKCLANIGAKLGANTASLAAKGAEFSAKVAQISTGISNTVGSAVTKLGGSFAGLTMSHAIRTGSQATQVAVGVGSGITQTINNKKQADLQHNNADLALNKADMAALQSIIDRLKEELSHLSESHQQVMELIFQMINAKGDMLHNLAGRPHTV
Sequence of Neurokinin-1 receptor (NK1R, nanodisc-embedded) (P25103 whole entry): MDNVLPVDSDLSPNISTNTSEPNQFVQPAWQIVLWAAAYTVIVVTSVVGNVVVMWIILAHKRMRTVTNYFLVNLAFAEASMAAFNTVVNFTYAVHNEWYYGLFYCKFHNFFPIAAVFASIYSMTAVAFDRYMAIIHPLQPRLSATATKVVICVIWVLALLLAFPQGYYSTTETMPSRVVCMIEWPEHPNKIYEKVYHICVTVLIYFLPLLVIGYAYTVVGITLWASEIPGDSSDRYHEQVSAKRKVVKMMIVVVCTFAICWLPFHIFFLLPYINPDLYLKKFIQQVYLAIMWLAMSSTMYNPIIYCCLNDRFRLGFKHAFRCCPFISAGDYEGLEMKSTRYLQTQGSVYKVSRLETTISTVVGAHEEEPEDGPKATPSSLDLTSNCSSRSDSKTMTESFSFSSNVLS
Sequence of LcrV-EGFP (P0C7U7 whole entry): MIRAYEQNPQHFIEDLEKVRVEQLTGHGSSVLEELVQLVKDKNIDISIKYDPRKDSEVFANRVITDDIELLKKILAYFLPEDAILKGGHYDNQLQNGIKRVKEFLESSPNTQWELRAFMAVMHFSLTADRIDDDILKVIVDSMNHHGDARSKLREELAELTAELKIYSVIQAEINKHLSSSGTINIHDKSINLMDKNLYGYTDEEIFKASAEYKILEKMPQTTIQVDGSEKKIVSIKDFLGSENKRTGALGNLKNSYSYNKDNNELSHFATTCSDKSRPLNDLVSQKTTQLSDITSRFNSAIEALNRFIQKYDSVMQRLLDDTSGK

Broadly, the Kd is a measure of binding affinity in units of concentration. On to LcrV-EGFP (from UniProt P0C7U7), for which, in data set [1], the Kd was 20 nM.

“Neurokinin-1 receptor (NK1R, nanodisc-embedded) (from UniProt P25103)”: the Kd in data set [2] is 83 nM.
